Test results as given in patent publication US20220098305A1 (Hoffmann-La Roche, published 2022).

T1: human ICOS (human, UniProt Q9Y6W8 21-199)
T1 construct: The cell that carries it is named under assay; also called huICOS; CD278
T1 sequence: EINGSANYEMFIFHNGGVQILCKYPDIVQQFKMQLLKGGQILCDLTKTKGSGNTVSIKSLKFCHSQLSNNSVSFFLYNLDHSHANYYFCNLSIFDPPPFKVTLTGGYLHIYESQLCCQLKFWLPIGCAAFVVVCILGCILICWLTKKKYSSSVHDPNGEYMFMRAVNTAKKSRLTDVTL


Legend:
human ICOS [1] = target: T1, human ICOS; experiment: flow cytometry, CHO cells expressing human ICOS
human ICOS [2] = target: T1, human ICOS; experiment: cell-based or functional assay
human ICOS [3] = target: T1, human ICOS; experiment: flow cytometry on CHO cells expressing human ICOS, PE-labelled secondary antibody; y axis printed LOG10(MFI PE)
human FAP = target: T2, human FAP (human, UniProt Q12884 1-760); experiment: flow cytometry, NIH/3T3-huFAP clone 19 cells
T2 construct: also called hu FAP

human ICOS [4] = target: T1, human ICOS; experiment: flow cytometry, SR cells
human ICOS [5] = target: T1, human ICOS; experiment: flow cytometry on SR cells expressing human ICOS, geometric MFI
human ICOS [6] = target: T1, human ICOS; experiment: flow cytometry on CHO cells expressing human ICOS, PE-labelled secondary antibody; y axis printed LOG10(MFI PE); remark: listed apart in the source
human ICOS [7] = target: T1, human ICOS; experiment: flow cytometry on CHO cells stably expressing human ICOS, PE-labelled secondary antibody, median fluorescence intensity (MFI)
Protocol: (§1) Briefly, suspension cells were harvested, counted, checked for viability and re-suspended at 1 million cells per ml in FACS buffer (PBS with 0.1% BSA). […] The staining was fixed for 20 min at 4° C. in the dark, using 75 μl of 1% PFA in FACS buffer per well.
(§2) Fluorescence was analyzed by FACS using a FACS Fortessa (Software FACS Diva). Binding curves and EC50 values were obtained using GraphPadPrism 7.

human ICOS [8] = target: T1, human ICOS; experiment: flow cytometry, CHO cells expressing human ICOS; remark: listed apart in the source
Protocol: as §1, §2

Binder | EC50 (human ICOS [1]) [nM] | Max (Log10(MFI)) (human ICOS [1]) | EC50 of activation of Jurkat-NFAT reporter cell line (human ICOS [2]) [nM] | Max (Counts/sec), Jurkat-NFAT reporter cell line (human ICOS [2]) [Counts/sec] | EC50 (read off the curve) (human ICOS [3]) [nM] | EC50 (human FAP) [nM] | EC50 (human ICOS [4]) [nM] | EC50 (read off the curve) (human ICOS [5]) [nM] | EC50 (read off the curve) (human ICOS [6]) [nM] | EC50 (read off the curve) (human ICOS [7]) [nM] | EC50 (human ICOS [8]) [nM]
Molecule 32 (ICOS 1138) (antibody, human IgG1, kappa, L234A L235A, V domains shown, Human IgG format; also called parental antibody of Molecules 33-35) VH: QSLEESGGDLVKPGASLTLTCTASGFDLSSYYYMSWVRQAPGKGLEWIASIYADIYGGTTHYASWAKGRFTISKTSSTTVTLQMTSLTAADTATYFCAREDGSRYGGSGYYNLWGPGTLVTVSS VL: ALVMTQTPSSVSAAVGGTVTINCQASQNIYSNLAWYQQKPGQPPKLLIYAASYLTSGVSSRFKGSGAGTQFTLTISGVESADAATYYCQQGHTTDNIDNAFGGGTEVVVKR | 2.12 | 4.3 Log10(MFI) | 38.7 | 28500 | ~2 | – | – | – | – | – | –
Molecule 21, bispecific 2+1 anti-ICOS (1143v1)/anti-FAP (4B9) huIgG1 P329GLALA kih (bispecific antibody) heavy 1: QSLEESGGDLVKPGASLTLTCKASGFDFSSAYDMSWVRQAPGKGLEWIGVVYYGDGITYYATWAKGRFTISKTSSTTVPLQMTSLTAADTATYFCARGAFLGSSYYLSLWGQGTLVTVSSASTKGPSVFPLAPSSKSTSGGTAALGCLVKDYFPEPVTVSWNSGALTSGVHTFPAVLQSSGLYSLSSVVTVPSSSLGTQTYICNVNHKPSNTKVDKKVEPKSCDKTHTCPPCPAPEAAGGPSVFLFPPKPKDTLMISRTPEVTCVVVDVSHEDPEVKFNWYVDGVEVHNAKTKPREEQYNSTYRVVSVLTVLHQDWLNGKEYKCKVSNKALGAPIEKTISKAKGQPREPQVCTLPPSRDELTKNQVSLSCAVKGFYPSDIAVEWESNGQPENNYKTTPPVLDSDGSFFLVSKLTVDKSRWQQGNVFSCSVMHEALHNHYTQKSLSLSPGGGGGSGGGGSGGGGSGGGGSEIVLTQSPGTLSLSPGERATLSCRASQSVTSSYLAWYQQKPGQAPRLLINVGSRRATGIPDRFSGSGSGTDFTLTISRLEPEDFAVYYCQQGIMLPPTFGQGTKVEIK heavy 2: not shown light: AIDMTQTPASVEAAVGGTVTINCQASENIYNWLAWYQQKPGQPPKLLIYDASKLASGVPSRFSASGSGTQFTLTISAVESADAATYYCQQAYTYGNIDNAFGGGTEVVVSRTVAAPSVFIFPPSDEQLKSGTASVVCLLNNFYPREAKVQWKVDNALQSGNSQESVTEQDSKDSTYSLSSTLTLSKADYEKHKVYACEVTHQGLSSPVTKSFNRGEC | – | – | – | – | – | 0.00501 | 0.00057 | ~0.5 | – | – | –
Molecule 44, bispecific 2+1 anti-ICOS (1143)/anti-FAP (4B9) huIgG1 P329GLALA kih (bispecific antibody) heavy 1: QSLEESGGDLVKPGASLTLTCKASGFDFSSAYDMSWVRQAPGKGLEWIGSVYYGDGITYYATWAKGRFTISKTSSTTVPLQMTSLTAADTATYFCARGAFLGSSYYLSLWGQGTLVTVSSASTKGPSVFPLAPSSKSTSGGTAALGCLVKDYFPEPVTVSWNSGALTSGVHTFPAVLQSSGLYSLSSVVTVPSSSLGTQTYICNVNHKPSNTKVDKKVEPKSCDKTHTCPPCPAPEAAGGPSVFLFPPKPKDTLMISRTPEVTCVVVDVSHEDPEVKFNWYVDGVEVHNAKTKPREEQYNSTYRVVSVLTVLHQDWLNGKEYKCKVSNKALGAPIEKTISKAKGQPREPQVCTLPPSRDELTKNQVSLSCAVKGFYPSDIAVEWESNGQPENNYKTTPPVLDSDGSFFLVSKLTVDKSRWQQGNVFSCSVMHEALHNHYTQKSLSLSPGGGGGSGGGGSGGGGSGGGGSEIVLTQSPGTLSLSPGERATLSCRASQSVTSSYLAWYQQKPGQAPRLLINVGSRRATGIPDRFSGSGSGTDFTLTISRLEPEDFAVYYCQQGIMLPPTFGQGTKVEIK heavy 2: not shown light: AIDMTQTPASVEAAVGGTVTINCQASENIYNWLAWYQQKPGQPPKLLIYDASKLASGVPSRFSASGSGTQFTLTISAVESADAATYYCQQAYTYGNIDNAFGGGTEVVVSRTVAAPSVFIFPPSDEQLKSGTASVVCLLNNFYPREAKVQWKVDNALQSGNSQESVTEQDSKDSTYSLSSTLTLSKADYEKHKVYACEVTHQGLSSPVTKSFNRGEC | – | – | – | – | – | 0.00434 | 0.00217 | ~2 | – | – | –
Molecule 28 (ICOS 1143v2) (antibody, human IgG1, kappa, L234A L235A, V domains shown, Human IgG format; also called parent antibody of Molecules 29-31) VH: QSLEESGGDLVKPGASLTLTCKASGFDFSSAYDMSWVRQAPGKGLEWIGVIYYGDGITYYATSVKGRFTISKTSSTTVPLQMTSLTAADTATYFCARGAFLGSSYYLSLWGQGTLVTVSS VL: AIDMTQTPASVEAAVGGTVTINCQASENIYNWLAWYQQKPGQPPKLLIYDASKLASGVPSRFSASGSGTQFTLTISAVESADAATYYCQQAYTYGNIDNAFGGGTEVVVSR | 2.56 | 4.88 Log10(MFI) | 28 | 52300 | – | – | – | – | ~3 | – | –
Molecule 33 (ICOS H1138_1) (antibody, human IgG1, kappa, L234A L235A, V domains shown, Human IgG format) VH: EVQLLESGGGLVQPGGSLRLSCAASGFDLSSYYYMSWVRQAPGKGLEWVSSIYADIYGGTTHYASWAKGRFTISKTSSKTTLYLQMNSLRAEDTAVYFCAREDGSRYGGSGYYNLWGQGTLVTVSS VL: DIQMTQSPSSLSASVGDRVTITCRASQNIYSNLAWYQQKPGQPPKLLIYAASYLTSGVPSRFSGSGSGTDFTLTISSLQPEDFATYYCQQGHTTDNIDNAFGGGTKVEIKR | 7.58 | 3.89 Log10(MFI) | 41.4 | 41400 | ~8 | – | – | – | – | – | –
Molecule 34 (ICOS H1138_2) (antibody, human IgG1, kappa, L234A L235A, V domains shown, Human IgG format) VH: EVQLLESGGGLVQPGGSLRLSCAASGFDLSSYYYMSWVRQAPGKGLEWVSSIYADIYGGTTHYASWAKGRFTISRDNSKNTLYLQMNSLRAEDTAVYFCAREDGSRYGGSGYYNLWGQGTLVTVSS VL: AIQMTQSPSSLSASVGDRVTITCRASQNIYSNLAWYQQKPGKPPKLLIYAASYLTSGVSSRFSGSGSGTDFTLTISSLQPEDFATYYCQQGHTTDNIDNAFGGGTKVEIKR | 10.2 | 1.91 Log10(MFI) | 34 | 38400 | ~10 | – | – | – | – | – | –
Molecule 1 (JMab136 IgG) (antibody, V domains shown, IgG) VH: not shown VL: DIQMTQSPSSVSASVGDRVTITCRASQGISRLLAWYQQKPGKAPKLLIYVASSLQSGVPSRFSGSGSGTDFTLTISSLQPEDFATYYCQQANSFPWTFGQGTKVEIK | – | – | – | – | – | – | – | – | – | ~2 | 0.0023
Molecule 29 (ICOS H1143v2_1) (antibody, human IgG1, kappa, L234A L235A, V domains shown, Human IgG format) VH: EVQLLESGGGLVQPGGSLRLSCAASGFDFSSAYDMSWVRQAPGKGLEWVSVIYYGDGITYYADSVKGRFTISRDNSKNTLYLQMNSLRAEDTAVYFCARGAFLGSSYYLSLWGQGTLVTVSS VL: DIQMTQSPSSLSASVGDRVTITCRASENIYNWLAWYQQKPGKAPKLLIYDASKLASGVPSRFSGSGSGTDFTLTISSLQPEDFATYYCQQAYTYGNIDNAFGGGTKVEIKR | 5.2 | 2.38 Log10(MFI) | 27.6 | 63800 | – | – | – | – | ~6 | – | –
Molecule 31 (ICOS H1143v2_3) (antibody, human IgG1, kappa, L234A L235A, V domains shown, Human IgG format) VH: EVQLLESGGGLVQPGGSLRLSCAASGFDFSSAYDMSWVRQAPGKGLEWIGVIYYGDGITYYADSVKGRFTISRDNSNTLYLQMNSLRAEDTAVYFCARGAFLGSSYYLSLWGQGTLVTVSS VL: DIQMTQSPSSLSASVGDRVTITCRASENIYNWLAWYQQKPGKAPKLLIYDASKLASGVPSRFSGSGSGTDFTLTISSLQPEDFATYYCQQAYTYGNIDNAFGGGTKVEIKR | 1.75 | 4.44 Log10(MFI) | 23.2 | 52000 | – | – | – | – | ~2 | – | –
Molecule 30 (ICOS H1143v2_2) (antibody, human IgG1, kappa, L234A L235A, V domains shown, Human IgG format) VH: EVQLLESGGGLVQPGGSLRLSCAASGFDFSSAYDMSWVRQAPGKGLEWVSVIYYGDGITYYADSVKGRFTISKTSSKTTLYLQMNSLRAEDTAVYFCARGAFLGSSYYLSLWGQGTLVTVSS VL: DIQMTQSPSSLSASVGDRVTITCRASENIYNWLAWYQQKPGKAPKLLIYDASKLASGVPSRFSGSGSGTDFTLTISSLQPEDFATYYCQQAYTYGNIDNAFGGGTKVEIKR | 2.25 | 2.75 Log10(MFI) | 29.4 | 55300 | – | – | – | – | ~2 | – | –
Molecule 27 (ICOS H009v1_3) (antibody, human IgG1, kappa, L234A L235A, V domains shown, Human IgG format) VH: EVQLVESGGGLVQPGRSLRLSCTASGFTFSDYWMNWVRQAPGKGLEWVAQIRNKPYNYETYYAASVKGRFTISRDDSKSIAYLQMNSLKTEDTAVYYCTWPRLRSSDWHFDVWGKGTTVTVSS VL: DIQMTQSPSSLSASVGDRVTITCQASQDINKNIAWYQQKPGKAPKLLIWYTSTLQTGVPSRFSGSGSGTDFTFTISSLQPEDIATYYCLQFDNLYTFGQGTKLEIKR | 2.7 | 6.85 Log10(MFI) | ~7.99 | 47400 | – | – | – | – | – | – | –
